Reference: US20030044400A1, “Composition and method for treating cells” (priority 2001, published 2003)

Legend:
PC-3 induced tumor = test: Prostate tumor (PC-3) in immunodeficient mice; type: in vivo, immunodeficient mice (TACN: NH (S)—NuFDF homozygous males); conditions: for reduction of prostate tumor: immunodeficient mice, 5 mg/30 g body weight, 5 days consecutive ip injection, vs control
Protocol: Another set of experiments were designed using immunodeficient mice (TACN: NH (S)—NuFDF homozygous males 3-4 wks old). The 2×10^7 PC-3 cells were implanted and allowed to grow for 6 wks. The mice in the control group received 0.5 ml saline intraperitoneally for 5 days and in the treated group received 0.5 ml Fetuin for 5 days.
The mice divided into 5 each group in this study were TACN:NH (S)—NuFDF homozygous males 3-4 weeks old and weighed an average of 22 g at the start of the experiment and 30 g at the termination of the experiment six weeks later. The animals were induced to prostate tumor formation by inoculating 2×10^7 PC-3 cells in 0.1 ml PBS suspension on the upper half of the dorsal thorax of the mouse. The tumor will be allowed to grow for 6 weeks. The mice in the control group will receive 0.1 ml saline intraperitoneally for 5 days and the mice in the treated group will receive 0.02 ml, 0.1 ml and 0.2 ml of Fetuin 10 mg/ml per day for 5 days. Treatment will start the day after tumor inoculation. Tumor will be weighed at the end of the experiment when the mice will be sacrificed for subsequent histopathology. Animals will be monitored daily for signs of tumor and/or any toxic effects from the test material.

PC-12 cells = test: Neurite outgrowth of PC-12 cells; type: cell-based; conditions: PC-12 cells in 0.5% serum+RPMI; 5uM Fetuin; over 2-3 days
Protocol: PC-12 cells were seeded in 10% heat-inactivated horse serum, 5% fetal bovine serum in RPMI 1640 medium for 1-2 days. The media were changed to 0.5% serum+RPMI overnight and treated with 5uM Fetuin.

normal cell lines = test: Apoptosis in normal cell lines; type: cell-based; conditions: in 2-3 days
[1] = test system: transforming growth factor-beta (TGF); test: Binding of transforming growth factor-beta
[2] = Hematological and Pathological Assessment of Fetuin in Balb/C Mice; type: in vivo
Protocol: The Balb/C mice weighing 20-30 g at six to eight weeks of age were divided in six animals per group, 3 female and 3 male, in this study. Fetuin is administered IV or IP at dose of 5 mg, 0.5 mg, 0.05 mg and 0.005 mg per 20 gm mouse for 7 days. Because the nutritional supplement has potential beneficial effects on the immune response, potential toxicity is determined by clinical hematological and classical pathological parameters.
Pre-study assessment of highest tolerated dose administration by IV or IP injection. The end-point is the highest non-lethal dose administered by each route. Animals are screened daily for signs of lethality and the total time of observation is seven days.
Clinical and histological assessment of highest tolerated and lessor doses of Fetuin. Seven days prior to the beginning of phase II each animal is bled to determine its background values for hematological and clinical chemistry parameters. The highest tolerated dose and the next lowest, as well as the vehicle are injected in a single injection by the best-tolerated route. After 24 hours the animals are sacrificed. Gross and microscopic pathologic examination are performed on the organs. Hematological, clinical chemistries and clinical pathology tests are performed: (1) Blood Collection and Analysis: Blood samples are collected from each mouse, one at the start of the experiment prior to receiving their injection of Fetuin and the second collected at the time of euthanasia. The samples are collected via retro-orbital sinus bleed, or tail bleed, under anesthesia. (2) Hematology: Approximately 125 ul of whole blood is collected in an EDTA tube at the specified time. The following hematological parameters are determined: White blood cell count (WBC), Red blood cell count (RBC), Hemoglobin (HGB), Hematocrit (HCT), Mean Corpuscular Volume (MCV), Mean Corpuscular Hemoglobin (MCH), Mean Corpuscular Hemoglobin […] (MCHC), Platelet count (PLT), WBC differential count. Whole blood samples for hematology are disposed of one week after analysis. (3) Clinical Chemistry: Approximately 125 ul of whole blood is collected in a tube containing no additives for serum at the specified times. Tests determine the following clinical chemistry parameters: Alanine aminotransferase (ALT) and Aspartate aminotransferase (AST). (4) Collection of Tissue: The following tissues are collected into 10% neutral buffered formalin (NBF): kidney, liver, lung, thymus, reproductive organ, heart, spleen and lymph nodes. Any abnormalities or gross pathology found at necroscopy are recorded for each animal. (5) Histopathology: Histology is done on the tissue samples submitted for each animal. The tissues will be paraffin-embedded, sectioned and stained with hematoxylin and eosin (H&E). A pathology reads the slides for apparent abnormalities.
Clinical and histological assessment of highest tolerated dose of Fetuin administered daily over 14 days. The highest tolerated dose as determined in Phase II and the vehicle is injected daily for fourteen consecutive days by the best-tolerated route. After 24 hours, one-half of the animals are sacrificed. The remainder are sacrificed after 14 days. Gross microscopic pathologic examination are performed on the organs recovered from all animals. (1) Blood collection and analysis: Blood sample is collected from each mouse, one at the start of the experiment prior to receiving their injection of Fetuin and the second collected at the time of euthanasia. The samples are collected via retro-orbital sinus bleed or tail bleed under anesthesia. (2) Hematology: Approximately 125 ul of whole blood is collected in an EDTA tube at the specified time. The following hematology parameters is determined: White blood cell count (WBC), Red blood cell count (RBC), Hemoglobin (HGB), Hematocrit (HCT), Mean Corpuscular Volume (MCV), Mean Corpuscular Hemoglobin (MCH), Mean Corpuscular Hemoglobin […] (MCHC), Platelet count (PLC), WBC differential count. […]

[3] = immunodeficient mice with PC-3, 0.5 ml Fetuin ip for 5 days, 9 mice

Substance: Fetuin: Fetal bovine fetuin purified from fetal bovine serum by modified Spiro method; 60 Kd glycoprotein, homologue of alpha 2-HS glycoprotein
- Ave. Mouse Weight (gm) (PC-3 induced tumor; [3]): 30.6 gm
- Ave. Tumor Weight (gm) (PC-3 induced tumor; [3]): 0 gm
- Tumor Incidence (%) (PC-3 induced tumor; [3]): 0%
- reduction of prostate tumor (PC-3 induced tumor): up to 100%
- reduction of prostate tumor (PC-3 induced tumor; listed as Fetal fetuin): 100%
- neurite outgrowth (PC-12 cells): neurite outgrowth was observed in many of the cells
- apoptosis in normal cell lines (normal cell lines): not the normal cell lines
- binding of transforming growth factor-beta (TGF) [1]: high affinity
- Blood glucose levels ([2]; Balb/C mice, 0.005 mg per animal): 13 mg/dL
- Blood glucose levels ([2]; Balb/C mice, 0.05 mg Fetuin): 27 mg/dL
- Blood glucose levels ([2]; Balb/C mice, 0.5 mg Fetuin): 25 mg/dL
- Blood glucose levels ([2]; Balb/C mice, 5 mg Fetuin per animal): 41.6 mg/dL
- cholesterol levels elevated compared to the lower doses ([2]; Balb/C mice, 5 mg per mouse, P<0.05): 14%
- survival and clinical signs ([2]; Balb/C mice, 5, 0.5, 0.05 and 0.005 mg Fetuin via IP route, 7 days): survived for 7 days without any signs of distress
- White Blood Cell (WBC) levels ([2]; Balb/C mice, 24 hrs after injection of various doses, p=0.126): within the normal limits
- AST (Aspartate Aminotransferase) level ([2]; Balb/C mice, P=0.306): within the normal limits
- ALT (Alanine Aminotransferase) level ([2]; Balb/C mice, P=0.444): within the normal limits
- microscopic structure of tissues ([2]; Balb/C mice, all dosage groups): normal in architecture
- body weight change ([2]; Balb/C mice, control vs Fetuin treated group): no significant body weight change
- Blood Urinary Nitrogen (BUN) levels ([2]; Balb/C mice, highest and lowest dose groups, unrelated to dose): elevated
- overall toxicity ([2]; Balb/c mouse): very low toxicity
- red blood cell count, white blood cell count and platelet count ([2]; healthy animals, 5-fold increased dose): did not affect
- safety by hematological, clinical chemistry and histopathological analysis ([2]; healthy mice, 2.5-5 fold higher dose than effective in cancer-bearing mice): no obvious adverse effect was observed
